Reference: publication PMC8350387, “Solution Structure of the dATP-Inactivated Class I Ribonucleotide Reductase From Leeuwenhoekiella blandensis by SAXS and Cryo-Electron Microscopy” (Frontiers in Molecular Biosciences, 2021)

Assays:
[1] = target: Leeuwenhoekiella blandensis class I ribonucleotide reductase radical-generating subunit NrdB (LbNrdB) (Leeuwenhoekiella blandensis); assay: SEC-SAXS; LbNrdB alone, 350 μL of 11 mg/ml with 1 mM dATP loaded on Superdex S200; SEC buffer 50 mM Tris-HCl pH 7.6, 300 mM NaCl, 2 mM DTT, 1 mM Mg acetate, 0.4 mM dATP, 5% glycerol
[2] = target: Leeuwenhoekiella blandensis class I ribonucleotide reductase radical-generating subunit NrdB (LbNrdB) (Leeuwenhoekiella blandensis); assay: cryo-EM structure; LbNrdAB complex formed with dATP, isolated on Superdex 200 with on-column 0.05% glutaraldehyde cross-linking in HEPES buffer; single particle reconstruction at 8.2 Å, no symmetry imposed
[3] = target: Leeuwenhoekiella blandensis class I ribonucleotide reductase radical-generating subunit NrdB (LbNrdB) (Leeuwenhoekiella blandensis); assay: SEC-SAXS; LbNrdA and LbNrdB mixed at 85 μM each with 1 mM dATP and 2 mM magnesium acetate, 5 min, on Superdex S200; SEC buffer 50 mM Tris-HCl pH 7.6, 300 mM NaCl, 2 mM DTT, 1 mM Mg acetate, 0.4 mM dATP, 5% glycerol
[4] = target: the molecule itself; assay: SAXS; batch mode, LbNrdA 0.625-5 mg/ml in 50 mM Tris-HCl pH 7.6, 300 mM NaCl, 2 mM DTT, 5% glycerol, 2 mM magnesium acetate, 1 mM dATP; 10 °C

Work on “Leeuwenhoekiella blandensis class I ribonucleotide reductase radical-generating subunit NrdB (LbNrdB) (enzyme)” yielded a stoichiometry N [1] of 4, a stoichiometry N [2] of 4 and a stoichiometry N [3] of 4.

B1: Leeuwenhoekiella blandensis class I ribonucleotide reductase catalytic subunit NrdA (LbNrdA) (enzyme, UniProt A3XHF8 1-600, looked up)
chain: MRENTTKLENSTETNVQHTKDNDLLKARRDALQDATEKNTDEPSFDWLTEHSRSFLAAGYLSEGVSAEERIREIADRAEEILRMPGFSDKFYKYMGEGYFSLASPVWSNFGKKRGLPISCFGSHIDDDMGNILYTQSEVGMMSKLGGGTSGYFGKIRHRGAAVKNNGYASGAVHIMQLFDKMVDVVSQGSVRRGRFSPYLPISHPDIKEFLEIGTEGNSIQQLTHGVTVDSTWMQEMIDGDTDKREVWAKVLQRRGEMGYPYIFYTDNANNGKPDVYKDKGHDIYASNLCTEIMLPSSDEWSFVCVLSSINVLHYDKWKNTDAVETMVCFLDAVLTEFIDKLEEYRDSDNRDHRQTFMFMERAYNFAKSNRALGLGVLGWHSLLQSKRHAFDSQEAYDLNSEIFREIKQRSYKASEELAEKFGEPETLKGYGRRNATLNAIAPTTSSAFILGQVSQGIEPIWSNVYVKDIAKIKTTIKNPFLEELFEEKGMNTPEVWRSVRDNDGSVQHLEFLTEQEKDVFKTYAEIDQMAIIYQAANRQNHIDQGQSINLLVHPDMPIKEINKIHITAWKLGLKSLYYQHSMNAAQKFKQKKECVSCEA
notes: NrdA (α subunit, subclass NrdAi, lacks an ATP-cone) of Leeuwenhoekiella blandensis; the homology model covers residues 40-596 and lacks 43 terminal residues per monomer; Dimer (α2) with dATP by SAXS; also called α2 (dimer); source: purified as described previously (Rozman Grinberg et al., 2018a); not shown: His6, N-terminal, kept
For B1, the “stoichiometry N” value [4] was 2 and the stoichiometry N (LbNrdA per LbNrdB (α4β4)) [3] was 1.
